# Assay results from the DeepSol protein solubility set.
# Experiment: soluble on expression in E. coli; label from the status in PepcDB or PDB records
row,Sequence,soluble on expression in E. coli
1,QTIKDFLAVAMKKWTAPFEPFQLIDNIYYVGTDGIAVYVIKTSQGLILMDTAMPQSTGMIKDNIAKLGFKVADIKLILNTHAHLDHTGGFAEIKKETGAQLVAGERDKPLLEGGYYPGDEKNEDLAFPAVKVDRAVKEGDRVTLGDTTLTAHATPGHSPGCTSWEMTVKDGKEDREVLFFCSGTVALNRLVGQPTYAGIVDDYRATFAKAKAMKIDVLLGPHPEVYGMQAKRAEMKDGAPNPFIKPGELVTYATSLSEDFDKQLAKQTAALEKK,soluble
2,MSLKIAIVNDMPMAVEALRRALAFDPSHEVVWVATNGAEAVKYCAELTPDLILMDLIMPVMDGVEATRRIMAESPCAIVIVTVDRQQNVHRVFEAMGHGALDVVDTPALGAGNAQEAAAPLLRKILNIGWLIGQEGHHHHHH,not soluble
3,MESLQSIKEIRKYIENNELVLMYFRSDNSGICYALDPLIEAISKKYSKISSVKVNTGNLPSVPADFKIFTVPEVIIFMNGSIVIEHFKYINFREIEEVLLRYYKCI,not soluble
4,MAEKTRYSDAELEEFRAIIMEKLELAQRDYDQLKMSLMGLDGNDTDDTSPTYKVLEEGANTLSKEETTRLAQRQLKFIQGLQAALVRIENKTYGICRETGKLIPAERLRAVPHATLSIEAKNSGKK,not soluble
5,MYLVTGATGQLGLRVVRRCITLGLPVRAFVRLTSQYELLKEWGAEIFIGDLQQPRDIQAAMKGVEAVICCHGSQLLSRAIQAIDYRATLDVIQAAQEQGVRYLTLISPLAVTGDRQQSPFLKAKYEVEQVLISSGLNYSIFRCPTLMSSLLPLAERFQQTGVYIVLGDPQHRLQLLSPDDLARCILIASQASQPAIFSMAHPEVFTRQEIADRLGRFFNRRPFVMTVPLSVIDGARQFLGVMSRDLDASLGTLRTLLAYESLCPASEIERAQTYFQLSFESLETFLGRYFLEHHHHHH,not soluble
6,MTTPLKKIVIVGGGAGGLEMATQLGHKLGRKKKAKITLVDRNHSHLWKPLLHEVATGSLDEGVDALSYLAHARNHGFQFQLGSVIDIDREAKTITIAELRDEKGELLVPERKIAYDTLVMALGSTSNDFNTPGVKENCIFLDNPHQARRFHQEMLNLFLKYSANLGANGKVNIAIVGGGATGVELSAELHNAIKQLHSYGYKGLTNEALNVTLVEAGERILPALPPRISAAAHNELTKLGVRVLTQTMVTSADEGGLHTKDGEYIEADLMVWAAGIKAPDFLKDIGGLETNRINQLVVEPTLQTTRDPDIYAIGDCASCPRPEGGFVPPRAQAAHQMATCAMNNILAQMNGKPLKNYQYKDHGSLVSLSNFSTVGSLMGNLTRGSMMIEGRIARFVYISLYRMHQIALHGYFKTGLMMLVGSINRVIRPRLKLH,not soluble
7,AIANSRAADQLELDGLPGTPPDFYRERQRSRVERYQSPAGAPLQCSVQVQTTQEHPLWTSHVWSGARALADTLCWQPELIAGKTVCELGAGAGLVSIVAFLAGADQVVATDYPDPEILNSLESNIREHTANSCSSETVKRASPKVVPYRWGDSPDSLQRCTGLQRFQVVLLADLLSFHQAHDALLRSVKMLLALPANDPTAVALVTFTHHRPHLAERDLAFFRLVNADGALIAEPWLSPLQMDPMFPDDPGDVCIRGQVHRWRLRWRSAASASANIPAHARNE,soluble
8,FISSRANVDDLKSIENKSDFVATENMPNYVKGAFISMEDERFYKHHGFDIKGTTRALFSTISDRDVQGGSTITQQVVKNYYYDNERSFTRKIKELFVARKVEKQYSKNQILSFYMNNIYYGDNQYTVEGAANHYFGVTVDKNNSNMSQISVLQSAILASKVNAPSVYD,not soluble
9,GSHMTNVTGDYTDCTPLLGDRAALDSFYEEHGYLFLRNVLDRDLVKTVAEQMREGLVALGAADPHATLEELTIDSFESVDEVAMHDYVKYDAFWNNPSTIKVFEQVFGEPVFVFLSTTIRYYPSQAGSEEPSFHYLTPFHQDGFYIGPNQDFRTFWIPLIRTTRESGGVALADGSHRRGKRDHVLNESFRRFGHPVRGIPPTEVSEDEHLLHSPMEPGDILLFHAHMCHKSIPNLSKDPRLMRMSMDTRVQPAKSHRGFNAMTPWTESAKDASKGIMAKITGTPTDVE,soluble
10,MAPGTKKKSDMAKFTFYKDRLMTFKNFEYDRDPDAKCTSQAVAQAGFYCTGPQSGKCAFCNKELDFDPEDDPWYEHTKRDEPCEFVRIGKLDDSELTINDTVRLSQTAMIMTKLFEHEMMINNLSNHSSSDALFDQLKKVPNTASTTKSNSRRGK,not soluble
11,QEGTSPMQKETRFLPGTNVEYEDYSTFFDKFSASGGFVLFNSNRKKYTIYNRKESTSRFAPASTYKVFSALLALESGIITKNDSHMTWDGTQYPYKEWNQDQDLFSAMSSSTTWYFQKLDRQIGEDHLRHYLKSIHYGNEDFSVPADYWLDGSLQISPLEQVNILKKFYDNEFDFKQSNIETVKDSIRLEESNGRVLSGKTGTSVINGELHAGWFIGYVETADNTFFFAVHIQGEKRAAGSSAAEIALSILDKKGIYPSVSR,soluble
12,TDKEEFALYCEAKNDKVRKRLGIKGGFYWTTAKKLSVAISRCITAMDDNDYDEDDFKKPVRVNLPVVDDLPPEGVFDTEFCNRYEKGGKDGITMTFIGPSPSVQDKPASTDNTNINGEAMTEIEESMLLPVSGQELPIRWLAQHGSEKPVTHVSRDELQALHIARAEELPAVTALAISHKTSLLDSL,not soluble
13,MSLIVSTIASHSSLQILLGAKKEGFKTRLYVSPKRRPFYSSLPIVDDLVVAEEMTSILNDDGIVVPHGSFVAYLGIEAIEKAKARFFGNRRFLKWETTFELQDKALEGAGIPRVEVVEPEDAKPDELYFVRIEGPRGGSGHFIVEGSELEERLSTLEEPYRVERFIPGVYLYVHFFYSPILERLELLGVDERVLIADGNARWPVKPLPYTIVGNRAIALRESLLPQLYDYGLAFVRTMRELEPPGVIGPFALHFAYDGSFKAIGIASRIDGGSNADHWYSELYWGERLSMGRRIARELRLAEEEDRLEEVVTEGHHHHHH,soluble
14,MNPDLRKERASATFNPELITHILDGSPENTRRRREIENLILNDPDFQHEDYNFLTRSQRYEVAVKKSATMVKKMREYGISDPEEIMWFKNSVHRGHPEPLDLHLGMFLPTLLHQATAEQQERFFMPAWNLEITGTYAQTEMGHGTHLRGLETTATYDPKTQEFILNSPTVTSIKWWPGGLGKTSNHAIVLAQLITQGECYGLHAFVVPIREIGTHKPLPGITVGDIGPKFGYEEMDNGYLKMDNYRIPRENMLMKYAQVKPDGTYVKPLSNKLTYGTMVFVRSFLVGNAAQSLSKACTIAIRYSAVRRQSEIKQSEPEPQILDFQTQQYKLFPLLATAYAFHFVGRYMKETYLRINESIGQGDLSELPELHALTAGLKAFTTWTANAGIEECRMACGGHGYSHSSGIPNIYVTFTPACTFEGENTVMMLQTARFLMKIYDQVRSGKLVGGMVSYLNDLPSQRIQPQQVAVWPTMVDINSLEGLTEAYKLRAARLVEIAAKNLQTHVSHRKSKEVAWNLTSVDLVRASEAHCHYVVVKVFSDKLPKIQDKAVQAVLRNLCLLYSLYGISQKGGDFLEGSIITGAQLSQVNARILELLTLIRPNAVALVDAFDFKDMTLGSVLGRYDGNVYENLFEWAKKSPLNKTEVHESYHKHLKPLQSKL,soluble
15,MGSDKIHHHHHHMSRTITIDPVTRIEGHATITIRLNDAGAVADARFHVTEFRGFERICIGRSIWEMPGITARICGICPVSHSISAARAGDAILGVEIPPAAVHLRRIANLASLIQSHALSFFHLSAADLLMGMDEEPSRRNLWGLVAHHPEVARGGIRLRQIGQKIVSDVAGESIHPSWAVPGGVREPLSPEGRDRIAALLPEGLAIVRGALGMLDGIYARHEAEITAYGDFPSLFAGLTASDGGLEHYDGSLRFTDSAGVHVDELSPEHYAQAVTERAEPWSYMTFPYYHPHGDREGGGMFRVGPLARLNICDRAGTPEADRELAAFRQVRGAGGMVTGSFHYHHARLIEILHALERIGMLLDEPDILDRHVRSEAGVNRPAGVGFCEAPRGTLFHDYEVDDDGIVSRVNLLIATGMNNLAINRTIRQVAAEFIRGGEFTEGILNRIEHGVRAYDPCLSCATHAYGRMPLRVMLLGPDGTVLDEAKRGR,not soluble
16,MGKQLAKKITWAIENFSSLHSKKIYSDPFIVGGCKWRFLVYPKGNNVDYLFLYLEVADYESLSPEWRRHARYLLNVVNQNSVKRSKQNEEQKWFDVQSPRWGRLSMFPLNEINAKDSGFLVNGELKIVAEIEVLEVIGKLDVSEETSTIMESMDFNGFQLLPSQVDFVRHMFEKHPEIASEFRLKNPNLRAGYMSLLLSLIETLRQSPQELNKVDLAEGYVALRSITDAGFKVDWLEKKLVEISEKKNKEEAGETRMQEINEELESLKQKCLDLEAQLEKEKAEVFAAKSPLSFNDVF,not soluble
17,MSLTEKFRPTLKDVARQAGVSIATASRALADNPAVAASTRERIQQLASDLGYRANAQARALRSSRSNTIGVIVPSLINHYFAAMVTEIQSTASKAGLATIITNSNEDATTMSGSLEFLTSHGVDGIICVPNEECANQLEDLQKQGMPVVLVDRELPGDSTIPTATSNPQPGIAAAVELLAHNNALPIGYLSGPMDTSTGRERLEDFKAACANSKIGEQLVFLGGYEQSVGFEGATKLLDQGAKTLFAGDSMMTIGVIEACHKAGLVIGKDVSVIGFDTHPLFALQPHPLTVIDQNVEQLAQRAVSILTELIAGTVPSVTKTTIPTALIHRESIINSTLRKEGHHHHHH,soluble
18,VAERNSLAKTVYAIFVPLREGESQIAAEITPMRSERFGVDVLPGHPALSQIEDLMSDSWQSALGRQTGPFRRIHWAGQLAHAMERDDRYDVIFFDVGPSLGPFNRTVLLGCDAFVTPTATDLFSFHAFGNLARWFDAWVTQYAEIHEGNMAEWKKYSADVEAKTRPLRLGGFDGEGLRYLGYTTLEYVKRRANGQEQLVGAFERFRGRFAAEAERISNSLSKHSNSTLLGHVPHMHSMPATAQDVHAPIMELSSSDRVRGAQINQRNAYAEKINSVAANVYKALFPNE,not soluble
19,MQLPLSYWIESTQFPTFPRLSENIKTKVAIIGAGITGITTAYLLAKEGIDVVLIDSGRILNGTTGHTTAKVTAQHDLIYDELINHFGVEKARLYYESNNQALQFINKTVQTYKIDCNFSNEDSYLYTTTDNGLRNLSKEYEAYQKLNIPCDYVQSLSIPIPVQSALVMKNQAQFHPLLYLKTLLEKFVEMGGKVYEQTTAMDVEKGDYSQIITKEGHHITCEYVVSCSHFPFYDANSFFFTRMYAERSYALAIKAKTEYPGGMYLSIDDPKRSLRYITNNGEKLILIGGESHKTGQGINTMLHYEALYSFAEATFGIDEVSYRWSAQDLITLDKLPYIGHINERNPNIFVATGYRKWGMTTGTAAAHLLKDSILKVHSPYKELYAPSRFHANPDIKTFLSQNIDVAKHLIAGLEHHHHHH,not soluble
20,MGHHHHHHSHGLPLWVSERILQQINQLTHYEPVIGIMGKTGAGKSSLCNALFAGEVSPVSDVAACTRDPLRFRLQIGEHFMTIVDLPGVGESGVRDTEYAALYREQLPRLDLILWLIKADDRALATDEHFYRQVIGEAYRHKMLFVISQS,not soluble
21,MKQPPLEDQYQMFGSIALSAFGAELLRHSLLPELLGKDAASLLYWAGKQLARRYPLGTLDDVAVFFERAGWGELSTGEERNDELYIELSGPIIAARFSLYGSCSFQLEAGFLAQQIEQQKRFVTEAVELPPKRDGKARILVKWDRKQAIE,not soluble
